Measured values published in patent US7897569B2, “Use of HMGB fragments as anti-inflammatory agents” (The Feinstein Institute for Medical Research, priority 2001, dated 2011).

B1: HMGB1: Recombinant full length human HMGB1, GST fusion system, SEQ ID NO:18; recombinant rat HMGB1 used in some experiments (protein)
chain: MGKGDPKKPTGKMSSYAFFVQTCREEHKKKHPDASVNFSEFSKKCSERWKTMSAKEKGKFEDMAKADKARYEREMKTYIPPKGETKKKFKDPNAPKRLPSAFFLFCSEYRPKIKGEHPGLSIGDVAKKLGEMWNNTAADDKQPYEKKAAKLKEKYEKDIAAYRAKGKPDAAKKGVVKAEKSKKKKEEEEDEEDEEDEEEEEDEEDEEDEEEDDDDE
modifications: GST fusion
notes: recombinant rat HMGB1 used in some experiments
B2: B box: Human HMGB1 mutant containing only the B box, SEQ ID NO:20 (protein)
chain: FKDPNAPKRLPSAFFLFCSEYRPKIKGEHPGLSIGDVAKKLGEMWNNTAADDKQPYEKKAAKLKEKYEKDIAAY
B3: A box: Human HMGB1 mutant containing only the A box, SEQ ID NO:21 (A box SEQ ID NO:22) (protein)
chain: MGKGDPKKPTGKMSSYAFFVQTCREEHKKKHPDASVNFSEFSKKCSERWKTMSAKEKGKFEDMAKADKARYEREMKTYIPPKGET

What was measured:
[1] = target: T1, human Toll-like receptor 4 (TLR4) (Homo sapiens, UniProt O00206); experiment: CD25 expression in CHO/TLR2 and CHO/TLR4 ELAM-CD25 reporter cells (flow cytometry); assay type: cell-based; conditions: CHO/TLR4 cells versus CHO/TLR2; HMG-1 100 ng/ml or B box 10 μg/ml, 18 hours
T1 construct: expressed in transfected cells; host or cells: CHO (CHO/TLR4, ELAM-CD25 reporter)
T1 sequence (O00206 24-839): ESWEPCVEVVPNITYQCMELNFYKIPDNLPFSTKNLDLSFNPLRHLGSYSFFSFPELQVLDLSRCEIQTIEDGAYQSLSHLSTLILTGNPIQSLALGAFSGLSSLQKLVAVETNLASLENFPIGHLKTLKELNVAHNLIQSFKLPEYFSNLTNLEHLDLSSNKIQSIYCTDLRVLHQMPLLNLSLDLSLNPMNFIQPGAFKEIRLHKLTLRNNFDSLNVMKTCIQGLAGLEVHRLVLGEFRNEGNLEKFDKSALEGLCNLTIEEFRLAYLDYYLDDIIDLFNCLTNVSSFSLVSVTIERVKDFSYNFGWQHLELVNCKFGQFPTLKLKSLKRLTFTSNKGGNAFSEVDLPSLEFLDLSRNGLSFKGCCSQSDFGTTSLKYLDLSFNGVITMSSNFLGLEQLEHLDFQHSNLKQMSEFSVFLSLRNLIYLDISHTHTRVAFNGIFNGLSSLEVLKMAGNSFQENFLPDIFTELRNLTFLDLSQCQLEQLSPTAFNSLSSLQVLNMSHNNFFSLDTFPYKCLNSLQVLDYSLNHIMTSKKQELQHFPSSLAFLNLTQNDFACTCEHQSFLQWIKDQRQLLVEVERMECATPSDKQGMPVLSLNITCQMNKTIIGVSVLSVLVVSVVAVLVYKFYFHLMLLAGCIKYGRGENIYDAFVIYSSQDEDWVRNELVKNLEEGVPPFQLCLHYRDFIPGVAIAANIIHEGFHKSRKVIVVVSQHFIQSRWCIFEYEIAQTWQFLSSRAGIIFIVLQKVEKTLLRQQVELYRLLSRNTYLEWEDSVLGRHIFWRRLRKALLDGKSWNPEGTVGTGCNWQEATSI
Description: The effect of HMGB1 or HMGB1 B box on NF-kB activation was also examined. CHO reporter cell lines that constitutively express human Toll-like receptor 2 (TLR2) or Toll-like receptor 4 (TLR4) have been previously described (Means et al., J. Immunology, 163:3920-3927, 1999). These reporter lines also contain a stably transfected ELAM-CD25 reporter gene, and express human CD25 on their surface as a consequence of NF-kB activation. CHO/TLR2 and CHO/TLR4 cells were stimulated with IL-1 (10 ng/ml), purified full-length HMG-1 (100 ng/ml), or purified B box (10 μg/ml) for 18 hours. Following stimulation, cells were stained with a PE-labeled anti-CD25 monoclonal antibody and surface expression of CD25 was measured by flow cytometry. The results of this study are shown ib FIG. 11C. Data are expressed as the ratio (fold-activation) of the percent of CD25^+ cells in unstimulated and stimulated cell populations that were gated to exclude the lowest 5% of cells based on mean FL1 fluorescence.

[2] = test system: NF-kB-dependent ELAM promoter; experiment: NF-kB-dependent ELAM promoter luciferase reporter in RAW 264.7 macrophages; assay type: cell-based, murine; conditions: HMGB1 100 ng/ml or B box 10 μg/ml, 5 hours; for level of luciferase stimulation: co-transfected with MyD 88 dominant negative
Description: To examine the effects of HMGB1 or HMGB1 B Box on the NF-kB-dependent ELAM promoter, the following experiment was carried out. RAW 264.7 macrophages were transiently co-transfected with an expression plasmid encoding a murine MyD 88-dominant-negative (DN) mutant (corresponding to amino acids 146-296), or empty vector, plus a luciferase reporter plasmid under the control of the NF-kB-dependent ELAM promoter, as described by Means et al. (J. Immunol. 166:4074-4082, 2001). A portion of the cells were then stimulated with full-length HMBG1 (100 ng/ml), or purified HMGB1 B box (10 μg/ml), for 5 hours. Cells were then harvested and luciferase activity was measured, using standard methods. All transfections were performed in triplicate, repeated at least three times, and a single representative experiment is shown in FIG. 11B.

RAW 264.7 cells = experiment: 125I-HMGB1 cell surface binding to RAW 264.7 cells; parameters: species or system murine; conditions: 4° C.
Description: Purified HMGB1 protein (10 μg) was radiolabeled with 0.2 mCi of carrier-free ^125I (NEN Life Science products Inc., Boston, Mass.) using Iodo-beads (Pierce, Rockford, Ill.) according to the manufacturer's instructions. ^125I-HMGB1 protein was separated from un-reacted ^125I by gel chromatography columns (P6 Micro Bio-Spin Chromatography Columns, Bio-Rad Laboratories, Hercules, Calif.) previously equilibrated with 300 mM sodium chloride, 17.5 mM sodium citrate, pH 7.0 and 0.1% bovine serum albumin (BSA). The specific activity of the eluted HMGB1 was about 2.8×10^6 cpm/μg protein. […] The radioactivity in the lysate was then measured using a gamma counter. Specific binding was determined as total binding minus the radioactivity obtained in the presence of an excess amount of unlabeled HMGB1 or A box proteins.
To determine whether the HMGB1 A box acts as an antagonist by displacing HMGB1 binding, ^125I-labeled-HMGB1 was added to macrophage cultures and binding was measured at 4° C. after 2 hours. […] The specificity of binding was assessed as described in Example 1.
In addition, ^125I-HMG-1 binding was measured in RAW 264.7 cells plated on 24-well dishes and incubated with ^125I HMGB1 alone or in the presence of unlabeled HMGB1 or A box. […] The data are expressed as the percent of total counts obtained in the absence of unlabeled HMGB1 proteins (2,382,179 CPM/well).

C3H/HeJ mice = experiment: Lethality and histology in C3H/HeJ mice; assay type: in vivo
[3] = C3H/HeJ mice, 8 hours after administration

Row | Molecule | CD25 expression [1] | level of luciferase stimulation [2] | luciferase activity ([2]; not co-transfected with MyD 88 dominant negative) | 125I-HMGB1 binding kinetics (RAW 264.7 cells; RAW 264.7 cells) | lethality (C3H/HeJ mice; C3H/HeJ mice (do not respond to endotoxin)) | histology of heart (C3H/HeJ mice; [3]) | histology of liver (C3H/HeJ mice; [3]) | histology of lung and kidney (C3H/HeJ mice; [3]) | displacement of 125I-HMGB1 binding (RAW 264.7 cells; 5,000 molar excess unlabeled A box, 2 hours)
1 | B1 | decreased CD25 expression compared to the CHO/TLR2 samples | decreased | stimulated luciferase activity | saturable first order binding kinetics |  |  |  |  | 
2 | B2 | decreased CD25 expression compared to the CHO/TLR2 samples | This effect was also observed |  |  | lethal | evidence of ischemia with loss of cross striation | mild acute inflammatory responses | no abnormal morphologic changes | 
3 | B3 |  |  |  |  |  |  |  |  | competitive antagonist of HMGB1 activity in vitro
